Results from patent publication US20090111745A1.

Target: human serum albumin (human), P02768
Test: sandwich ELISA, HSA coated at 10 µg/ml, conjugate at 1 µM, detection with anti-FITC antibody

B1: DOM7h-8cys/FITC conjugate (protein)
VL: DIQMTQSPSSLSASVGDRVTITCRASQSISSYLNWYQQKPGKAPKLLIYRNSPLQSGVPSRFSGSGSGTDFTLTISSLQPEDFATYYCQQTYRVPPTFGQGTKVEIKC
modifications: not checked
Binder B1 has an OD600 of 0.38 OD600.
